Results from patent publication US20180355338A1.

Key:
[1] = molecular target: TY-145 protease variant S27K, S171D, S173P, G174R, S175P, G182A, L184F, Q198E, N199K, R224G, T297P (Bacillus sp. TY-145); assay: Ki fitted from Suc-AAPF-pNA activity; Model B detergent; ratio against m12 (without R224G)
[2] = molecular target: TY-145 protease variant I150N, S173P, S175P, F180Y (Bacillus sp. TY-145); assay: Ki fitted from Suc-AAPF-pNA activity; Model B detergent; ratio against m3 (without I150N)
[3] = molecular target: TY-145 protease variant K146F, S173P, S175P, F180Y (Bacillus sp. TY-145); assay: Ki fitted from Suc-AAPF-pNA activity; Tris buffer pH 8; ratio against m3 (without K146F)
[4] = molecular target: TY-145 protease variant K146T, S173P, S175P, F180Y (Bacillus sp. TY-145); assay: Ki fitted from Suc-AAPF-pNA activity; Tris buffer pH 8; ratio against m3 (without K146T)
[5] = molecular target: TY-145 protease variant S27K, S171N, S173P, G174R, S175P, F180Y, G182A, L184F, Q198E, N199K, R224G, T297P (Bacillus sp. TY-145); assay: Ki fitted from Suc-AAPF-pNA activity; Model B detergent; ratio against m13 (without R224G)
[6] = molecular target: TY-145 protease variant K146A, S173P, S175P, F180Y (Bacillus sp. TY-145); assay: Ki fitted from Suc-AAPF-pNA activity; Model B detergent; ratio against m3 (without K146A)
[7] = molecular target: TY-145 protease variant S173P, S175P, F180Y, L184D (Bacillus sp. TY-145); assay: Ki fitted from Suc-AAPF-pNA activity; Model B detergent; ratio against m3 (without L184D)
[8] = molecular target: TY-145 protease variant S173P, S175P, I178F, F180Y (Bacillus sp. TY-145); assay: Ki fitted from Suc-AAPF-pNA activity; Model B detergent; ratio against m3 (without I178F)
[9] = molecular target: TY-145 protease variant S173P, S175P, F180Y, R224D (Bacillus sp. TY-145); assay: Ki fitted from Suc-AAPF-pNA activity; Model B detergent; ratio against m3 (without R224D)
[10] = molecular target: TY-145 protease variant S173P, S175P, F180Y, R224G (Bacillus sp. TY-145); assay: Ki fitted from Suc-AAPF-pNA activity; Model B detergent; ratio against m3 (without R224G)
[11] = molecular target: TY-145 protease variant S173P, S175P, F180Y, L184Y (Bacillus sp. TY-145); assay: Ki fitted from Suc-AAPF-pNA activity; Model B detergent; ratio against m3 (without L184Y)
[12] = molecular target: TY-145 protease variant K146W, S173P, S175P, F180Y (Bacillus sp. TY-145); assay: Ki fitted from Suc-AAPF-pNA activity; Model B detergent; ratio against m3 (without K146W)
[13] = molecular target: TY-145 protease variant S27K, I121V, S171N, S173P, G174R, S175P, F180Y, L184F, Q198E, T297P (Bacillus sp. TY-145); assay: Ki fitted from Suc-AAPF-pNA activity; Model B detergent; ratio against m6 (without L184F)
[14] = molecular target: TY-145 protease variant K146N, S173P, S175P, F180Y (Bacillus sp. TY-145); assay: Ki fitted from Suc-AAPF-pNA activity; Tris buffer pH 8; ratio against m3 (without K146N)
[15] = molecular target: TY-145 protease variant S27K, I121V, S171N, S173P, G174R, S175P, F180Y, Q198E, R224S, T297P (Bacillus sp. TY-145); assay: Ki fitted from Suc-AAPF-pNA activity; Model B detergent; ratio against m6 (without R224S)
[16] = molecular target: TY-145 protease variant S27K, S171N, S173P, G174R, S175P, F180Y, L184W, Q198E, T297P (Bacillus sp. TY-145); assay: Ki fitted from Suc-AAPF-pNA activity; Model B detergent; ratio against m4 (without L184W)
[17] = molecular target: TY-145 protease (mature, SEQ ID NO: 3) (Bacillus sp. TY-145); assay: Ki fitted from Suc-AAPF-pNA activity; Model B detergent; the reference itself (TY145 backbone)
[18] = molecular target: TY-145 protease variant S173P, S175P, I178F, F180Y (Bacillus sp. TY-145); assay: Ki fitted from Suc-AAPF-pNA activity; Model B detergent; ratio against m3 (without I178F); second row of the same variant
[19] = molecular target: TY-145 protease variant I150N (Bacillus sp. TY-145); assay: Ki fitted from Suc-AAPF-pNA activity; Model B detergent; relative to TY145 backbone
[20] = molecular target: TY-145 protease variant Q70N (Bacillus sp. TY-145); assay: as above
[21] = molecular target: TY-145 protease variant Q70A (Bacillus sp. TY-145); assay: as above
[22] = molecular target: TY-145 protease variant S114A (Bacillus sp. TY-145); assay: as above
[23] = molecular target: TY-145 protease variant I150A, S173P, S175P, F180Y (Bacillus sp. TY-145); assay: Ki fitted from Suc-AAPF-pNA activity; Model B detergent; ratio against m3 (without I150A)
[24] = molecular target: TY-145 protease variant S173P, S175P, F180Y, L184F (Bacillus sp. TY-145); assay: Ki fitted from Suc-AAPF-pNA activity; Model B detergent; ratio against m3 (without L184F); second row of the same variant
[25] = molecular target: TY-145 protease variant S27K, S173P, G174K, S175P, F180Y, L184F, Q198E, N199K, T297P (Bacillus sp. TY-145); assay: Ki fitted from Suc-AAPF-pNA activity; Model B detergent; ratio against m8 (without L184F)

Work on “Z-Gly-Ala-NHCH(CH2C6H4pOH)C(OH)(SO3Na)-H, wherein Z is benzyloxycarbonyl (peptide)” yielded a relative Ki mutation [1] of 0.49, a relative Ki mutation [2] of 0.35 and a relative Ki mutation [3] of 0.19. It also gave a relative Ki mutation [4] of 0.06, a relative Ki mutation [5] of 0.69 and a relative Ki mutation [6] of 0.34. It also gave a relative Ki mutation [7] of 0.37, a relative Ki mutation [8] of 0.5 and a relative Ki mutation [9] of 0.36. The relative Ki mutation [10] was 0.47, the relative Ki mutation [11] was 0.24 and the relative Ki mutation [12] was 0.23. For the same substance, the relative Ki mutation [13] was 0.3, the relative Ki mutation [14] was 0.91 and the relative Ki mutation [15] was 0.56. The relative Ki mutation [16] was 0.57, the IF (binding constant improvement factor, relative Ki) [17] was 1 and the relative Ki mutation [18] was 0.49. It also gave an IF (binding constant improvement factor, relative Ki) [19] of 0.27, an IF (binding constant improvement factor, relative Ki) [20] of 0.3 and an IF (binding constant improvement factor, relative Ki) [21] of 0.39. It also gave an IF (binding constant improvement factor, relative Ki) [22] of 0.47, a relative Ki mutation [23] of 0.5 and a relative Ki mutation [24] of 0.27. It also gave a relative Ki mutation [25] of 0.36.
